Test results taken from paper PMC13598245.
Blank lines part the entries; values can stand above or below the substance they belong to.

What was measured:
[1] = biological target: 14-3-3η (purified, recombinant) (UniProt Q04917); assay: SEC; complex formed in vitro: equimolar MAST1^D p-S90 and 14-3-3η, 30 min at room temperature, then analytical SEC (Superdex 200 Increase 3.2/300, 50 mM HEPES pH 7.4, 150 mM NaCl, 1 mM TCEP, 4 °C; 50 μL of 30 μM); Coomassie SDS-PAGE of fractions with gel densitometry
[2] = biological target: 14-3-3η (purified, recombinant) (UniProt Q04917); assay: cross-linking + other: mass photometry; complex stabilised by glutaraldehyde cross-linking, then mass photometry (25 to 50 nM, 50 mM HEPES pH 7.4, 150 mM NaCl, 1 mM TCEP)
[3] = biological target: 14-3-3η (purified recombinant) (UniProt P68510); assay: fluorescence anisotropy, FITC peptide; conditions: reference: unphosphorylated peptide …
14-3-3η (endogenous) = 14-3-3η (endogenous) (UniProt Q04917); assay: GFP-Trap affinity purification, mass spectrometry; conditions: sites S90
[4] = biological target: GST-tagged 14-3-3η (coexpressed with MAST1^DK) (UniProt Q04917); assay: cross-linking + other: mass photometry; complex stabilised by glutaraldehyde cross-linking, then mass photometry (25 to 50 nM, 50 mM HEPES pH 7.4, 150 mM NaCl, 1 mM TCEP)
[5] = biological target: GST-tagged 14-3-3η (coexpressed with MAST1^DK) (UniProt Q04917); assay: SEC; complex coexpressed in Sf9, affinity-purified by the GST tag of 14-3-3η, then analytical SEC (Superdex 200 Increase 3.2/300, 50 mM HEPES pH 7.4, 150 mM NaCl, 1 mM TCEP, 4 °C); Coomassie SDS-PAGE of fractions with gel densitometry
[6] = biological target: MAST1^DK ΔS90 ΔS161 (Mus musculus); assay: FP
MAST1^DK ΔS90 ΔS161 (Mus musculus), sequence (Q9R1L5 whole entry S90del/S161del): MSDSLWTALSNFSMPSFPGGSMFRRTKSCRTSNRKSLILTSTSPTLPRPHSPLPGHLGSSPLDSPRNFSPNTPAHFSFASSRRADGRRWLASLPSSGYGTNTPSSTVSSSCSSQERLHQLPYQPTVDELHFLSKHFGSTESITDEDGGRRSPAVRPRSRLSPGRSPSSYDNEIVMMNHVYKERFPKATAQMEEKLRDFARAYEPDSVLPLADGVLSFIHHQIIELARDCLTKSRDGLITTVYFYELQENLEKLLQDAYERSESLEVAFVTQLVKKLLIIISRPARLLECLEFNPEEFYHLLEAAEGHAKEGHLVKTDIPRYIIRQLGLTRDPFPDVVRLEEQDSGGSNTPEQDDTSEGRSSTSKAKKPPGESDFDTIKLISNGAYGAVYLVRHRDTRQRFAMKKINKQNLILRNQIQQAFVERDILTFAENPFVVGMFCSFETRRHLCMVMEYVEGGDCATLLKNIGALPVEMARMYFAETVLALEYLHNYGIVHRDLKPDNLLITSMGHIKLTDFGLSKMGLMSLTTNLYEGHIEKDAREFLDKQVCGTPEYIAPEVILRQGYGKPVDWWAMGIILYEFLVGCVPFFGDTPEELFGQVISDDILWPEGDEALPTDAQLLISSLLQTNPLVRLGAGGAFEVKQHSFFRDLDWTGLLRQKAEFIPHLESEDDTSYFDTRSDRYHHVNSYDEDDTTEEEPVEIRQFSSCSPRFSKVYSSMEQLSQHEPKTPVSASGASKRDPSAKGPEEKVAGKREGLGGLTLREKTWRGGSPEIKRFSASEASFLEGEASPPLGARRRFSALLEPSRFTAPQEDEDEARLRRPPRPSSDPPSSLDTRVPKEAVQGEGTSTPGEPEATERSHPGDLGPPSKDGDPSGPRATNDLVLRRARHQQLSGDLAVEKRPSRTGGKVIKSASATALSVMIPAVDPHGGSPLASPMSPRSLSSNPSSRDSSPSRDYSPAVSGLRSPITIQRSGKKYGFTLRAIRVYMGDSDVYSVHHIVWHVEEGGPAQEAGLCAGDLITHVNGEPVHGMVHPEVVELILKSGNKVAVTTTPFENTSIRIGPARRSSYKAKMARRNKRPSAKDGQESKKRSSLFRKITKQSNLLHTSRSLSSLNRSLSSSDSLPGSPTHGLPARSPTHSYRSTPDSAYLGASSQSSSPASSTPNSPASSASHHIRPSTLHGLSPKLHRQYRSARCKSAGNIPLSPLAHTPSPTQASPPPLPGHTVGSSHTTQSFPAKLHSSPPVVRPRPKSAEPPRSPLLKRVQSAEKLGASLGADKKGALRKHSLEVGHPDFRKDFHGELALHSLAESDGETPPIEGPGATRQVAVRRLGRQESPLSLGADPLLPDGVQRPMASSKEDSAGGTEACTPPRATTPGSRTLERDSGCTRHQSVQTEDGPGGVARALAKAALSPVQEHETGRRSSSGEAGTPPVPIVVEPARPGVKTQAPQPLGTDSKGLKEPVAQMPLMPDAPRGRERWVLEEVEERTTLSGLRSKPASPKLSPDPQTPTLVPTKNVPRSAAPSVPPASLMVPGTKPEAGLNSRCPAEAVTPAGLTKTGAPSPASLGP

14-3-3η (purified, recombinant), sequence (Q04917 whole entry): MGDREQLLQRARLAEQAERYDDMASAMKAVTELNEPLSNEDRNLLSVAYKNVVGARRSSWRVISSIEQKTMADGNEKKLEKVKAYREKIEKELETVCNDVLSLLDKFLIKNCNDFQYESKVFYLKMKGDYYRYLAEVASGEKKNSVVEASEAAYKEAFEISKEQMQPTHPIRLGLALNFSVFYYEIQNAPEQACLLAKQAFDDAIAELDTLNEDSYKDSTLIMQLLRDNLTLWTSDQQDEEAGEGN
GST-tagged 14-3-3η (coexpressed with MAST1^DK), sequence (Q04917 whole entry): as above

Substance: MAST1 156-168 (from UniProt Q9R1L5) p-S161 peptide
binding against the reference ([3]; sites S161): gained

Substance: MAST1 MAST1DKP (from UniProt Q9R1L5) S90A S161A
binding against the reference (14-3-3η (endogenous); reference: S161A single mutant (S90 intact)): weaker

Substance: MAST1^DK (copurified with 14-3-3η) (from UniProt Q9R1L5 1-1570) (domain or fragment)
stoichiometry N (MAST1:14-3-3η) [4]: 0.5
stoichiometry N (MAST1:14-3-3η) [5]: 0.5

Continued, values first:

stoichiometry N (MAST1:14-3-3η) [1]: 0.5
stoichiometry N (MAST1:14-3-3η) [2]: 0.5
Substance: MAST1^D p-S90 (from UniProt Q9R1L5 1-1570) (domain or fragment)

binding against the reference ([3]; sites S90): gained
Substance: MAST1 85-97 (from UniProt Q9R1L5) p-S90 peptide

binding against the reference (14-3-3η (endogenous); reference: wild type): weaker
Substance: MAST1 MAST1DKP (from UniProt Q9R1L5) S90A

Kd [6]: 1.17 mM
Substance: MAST1^153-166 WT
